These results are taken from US7514534 (DYAX, dated 2009).

The target of assay [1] is T1, MMP-26 catalytic domain, tagged with hexa-histidine (human, UniProt Q9NRE1 90-261).
T1 construct: the forward primer adds Met-Ala before it; also called MMP-26 target protein; Matrilysin-2; not shown: Also any N-terminal residues added by the forward primer (Met-Ala according to our card; the primers were not visible to me)
T1 sequence: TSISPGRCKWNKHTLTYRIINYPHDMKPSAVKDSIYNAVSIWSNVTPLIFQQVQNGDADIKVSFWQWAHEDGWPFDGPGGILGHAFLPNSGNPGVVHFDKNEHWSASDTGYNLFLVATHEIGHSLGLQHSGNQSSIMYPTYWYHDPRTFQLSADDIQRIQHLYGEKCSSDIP
Nature of the assay: bead-based ELISA, MMP-26 on nickel beads, IgG4 culture supernatant. The protocol: Reformatted and expressed full-length MMP-26 binding IgG4 antibodies were tested for specificity in a bead-based ELISA. Approximately 1.25 μg of MMP-26 protein was bound to nickel-coated magnetic beads (Novagen) which had been pre-blocked with phosphate buffered saline containing 5% (w/v) nonfat dry milk and 0.05% (v/v) Tween-20. The beads were washed in phosphate buffered saline containing 0.05% (v/v) Tween-20 (PBS-T) and 100 uls of unpurified cell culture supernatant containing transiently produced MMP-26-binding antibodies was added and incubated on a rotator for sixty minutes. The beads were washed with PBS-T and MMP-26-binding antibodies were detected with an HRP-conjugated anti-human secondary antibody. Data is expressed in fold over background where background consists of beads, blocking agent, and culture supernatant containing target antibody (Table 2; in this table, Results shown as fold over background (F>B) where background consists of beads, blocking agent, and culture supernatant).
In general terms: An ELISA detects its analyte on a solid surface through an enzyme-linked reagent.

Assay [2] concerns the target T2, MMP-3 (UniProt P08254 100-477, limits assumed).
T2 construct: also called stromelysin-1
Nature of the assay: cross-reactivity ELISA on coated MMP. As for the experimental part: (§1) Twenty-one of the reformatted MMP-26 antibodies were tested for MMP cross reactivity by ELISA analysis. MMP-3, MMP-7, MMP-9, and MMP-12 were coated onto Immulon 2 HB 96-well plates at a concentration of 1 μg/ml for 1 hour at 37° C. The plates were blocked with PBS-T containing 5% (w/v) nonfat dry milk for thirty minutes and subsequently washed with PBS-T. Each antibody was tested for reactivity to all of the above mentioned MMPs at a concentration of 2 μg/ml with an incubation time of 1 hour. Bound antibody was detected with an HRP-conjugated anti-human secondary antibody (Table 3, NT=not tested.).

The target of assay [3] is T3, MMP-9 (UniProt P14780 107-707, limits assumed).
T3 construct: also called gelatinase
The assay is described as follows: cross-reactivity ELISA on coated MMP. As for the experimental part:
as §1

T3 sequence (P14780 107-707 limits assumed): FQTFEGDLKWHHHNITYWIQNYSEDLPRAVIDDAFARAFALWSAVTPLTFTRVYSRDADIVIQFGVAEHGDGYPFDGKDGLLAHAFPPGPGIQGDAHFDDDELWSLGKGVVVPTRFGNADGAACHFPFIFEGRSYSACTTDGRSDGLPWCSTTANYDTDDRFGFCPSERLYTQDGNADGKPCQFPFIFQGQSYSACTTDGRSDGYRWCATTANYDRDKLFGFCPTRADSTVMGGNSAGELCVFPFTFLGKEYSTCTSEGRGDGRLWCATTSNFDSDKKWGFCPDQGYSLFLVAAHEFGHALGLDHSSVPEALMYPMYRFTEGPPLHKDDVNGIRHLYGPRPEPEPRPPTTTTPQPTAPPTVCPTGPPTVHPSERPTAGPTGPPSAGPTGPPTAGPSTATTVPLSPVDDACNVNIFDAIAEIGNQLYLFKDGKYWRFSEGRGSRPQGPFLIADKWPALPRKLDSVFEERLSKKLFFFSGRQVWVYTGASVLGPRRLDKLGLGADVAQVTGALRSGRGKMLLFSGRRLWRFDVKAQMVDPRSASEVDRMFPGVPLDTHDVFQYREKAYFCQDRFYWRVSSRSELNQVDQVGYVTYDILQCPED
T2 sequence (P08254 100-477 limits assumed): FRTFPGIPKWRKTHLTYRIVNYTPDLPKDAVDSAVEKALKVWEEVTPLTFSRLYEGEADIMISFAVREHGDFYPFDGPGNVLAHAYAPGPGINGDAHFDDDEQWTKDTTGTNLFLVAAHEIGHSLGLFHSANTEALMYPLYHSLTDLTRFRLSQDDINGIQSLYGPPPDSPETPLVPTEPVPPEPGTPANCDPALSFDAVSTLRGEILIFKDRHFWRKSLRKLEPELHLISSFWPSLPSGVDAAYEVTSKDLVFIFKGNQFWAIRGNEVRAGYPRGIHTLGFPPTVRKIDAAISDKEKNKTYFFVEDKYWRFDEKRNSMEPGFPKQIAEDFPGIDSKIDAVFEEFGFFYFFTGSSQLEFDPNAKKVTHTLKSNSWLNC

B1: C01 (antibody, human IgG4, V domains shown)
VH: EVQLLESGGGLVQPGGSLRLSCAASGFTFSNYGMSWVRQAPGKGLEWVSVIGPSGGITMYADSVKGRFTISRDNSKNTLYLQMNSLRAEDTAVYYCATGSSSGWYPNFDYWGQGTLVTVSS
VL: DIQMTQSPSTLSASVGDRVTITCRASQSIGNWLAWYQQKPGEAPHLLIYQASSLEGGVPSRFSGSGSGTKFTLNISSLQPDDFATYYCQQYNSYSYTFGQGTKLDIKR
notes: whole human IgG4
As to B1, in assay [1], the “F > B (fold over background)” value was found to be 2.8 fold over background. Moreover, the binding result in assay [2] and in assay [3] was “no binding (tested: 2 µg/ml)” each time.

B2: B11 (antibody, human IgG4, V domains shown)
VH: EVQLLESGGGLVQPGGSLRLSCAASGFTFSPYFMFWVRQAPGKGLEWVSSIGSSGGDTSYADSVKGRFTISRDNSZNTLYLQMNSLRAEDTAVYYCARGLYRWGQGTLVTVSS
VL: QSELTQPPSVSLAPGQTARITCGGNNIGTKSVHWYQQKPGQAPVLVVYDDSDRPSGIPERFSGSNSGNTATLTISRVEAGDEADYYCQVWDSGSDHQVFGGGTKLTVLG
notes: whole human IgG4; the VHC entry has one unread residue (printed z, K75z)
Regarding B2, in assay [1], the “F > B (fold over background)” value is 3.13 fold over background. Moreover, the binding result in assay [2] and in assay [3] was “no binding (tested: 2 µg/ml)” each time.

B3: C03 (antibody, human IgG4, V domains shown)
VH: EVQLLESGGGLVQPGGSLRLSCAASGFTFSLYMMKWVRQAPGKGLEWVSVISSSGGYTQYADSVKGRFTISRDNSKNTLYLQMNNLRAEDTAVYYCARGWDVWGKGTTVTVSS
VL: QSALTQPPSASGTPGQRVTISCSGSNSNIGGNIVIWLQQLPGTAPKLMIYDVSDRPSGVPDRFSGSKSGTSASLAISGLQSEDEADYYCAAWDDSLNGWVFGGGTKLTVLS
notes: whole human IgG4
B3: the “F > B (fold over background)” value in assay [1] turned out to be 4.1 fold over background. The binding result in assay [2] and in assay [3] was “no binding (tested: 2 µg/ml)” throughout.

B4: C04 (antibody, human IgG4, V domains shown)
VH: EVQLLESGGGLVQPGGSLRLSCAASGFTFSMYFMVWVRQAPGKGLEWVSWIGSSGGETPYADSVKGRFTISRDNSKNTLYLQMNSLRAEDTAVYYCARGYSSGWYVMGDYWGQGTLVTVSS
VL: QSALTQPPSASGTPGQRVTISCSGTSSNIGSHYVFWYQQLPGTAPKLLIHRNDERPSGVPDRFSGSKSGTSASLAISGLQSEDEADYYCATWDDNLNGPVFGGGTKLT
notes: whole human IgG4
Consider B4, for which, in assay [1], the “F > B (fold over background)” value came to 2.9 fold over background. The binding result in assay [2] and in assay [3] was “no binding (tested: 2 µg/ml)” throughout.

B5: B12 (antibody, human IgG4, V domains shown)
VH: EVQLLESGGGLVQPGGSLRLSCAASGFTFSLYVMYWVRQAPGKGLEWVSYISSSGGITHYADSVKGRFTISRDNSKNTLYLQMNSLRAEDTAVYYCARGSIVVVPAAIRSNNWFDPWGQGTLVTVSS
VL: QSALTQPPSVSVAPGQTARISCGGDNIDTKNVQWYQQRPGQAPVLVVYDNSDRPSAIPERFSGSNSGTTATLTISRVEAGDEADYYCQVFDGRSDHPVFGGGTKLTV
notes: whole human IgG4
With B5, the “F > B (fold over background)” value in assay [1] amounted to 2.83 fold over background. For the same molecule, the binding result in assay [2] and in assay [3] was “no binding (tested: 2 µg/ml)” throughout.

B6: C05 (antibody, human IgG4, V domains shown)
VH: EVQLLESGGGLVQPGGSLRLSCAASGFTFSSYQMDWVRQAPGKGLEWVSRIVPSGGDTTYADSVKGRFTISRDNSKNTLYLQMNSLRAEDTAVYYCARHVYYDSSDYFPNPFDYWGQGTLVTVSS
VL: QSELTQPPSVSGTPGQRVTISCSGSSSNIGSEYVYWFQQLPGTAPRLLIYRNDQRPSGVPDRFSGSKSGTSASLAISGLRSEDETDYYCTTWDDSLSGPVFGGGTKLTVLG
notes: whole human IgG4
For B6, the “F > B (fold over background)” value in assay [1] stood at 3.6 fold over background. Besides, the binding result in assay [2] and in assay [3] was “no binding (tested: 2 µg/ml)” each time.
